Among the data in publication PMC10397247 are interaction score values, retold here.

Where two headings read alike, the source gives them in different places.

The target in assay [1] is T1, 4H3926-bH.
T1 chain: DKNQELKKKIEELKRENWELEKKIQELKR
Kind of assay: two-hybrid library CCNG1.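 Also: natural log of median RNA to DNA barcode read ratio; higher means stronger binding.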

Assay [2] deals with T2, 4H3974-bH.
T2 chain: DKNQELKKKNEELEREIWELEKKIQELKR
Kind of assay: two-hybrid library CCNG1.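 Also: natural log of median RNA to DNA barcode read ratio; higher means stronger binding.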

The target of assay [3] is T3, 4H3175-bH.
T3 chain: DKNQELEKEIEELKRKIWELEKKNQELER
Kind of assay: two-hybrid library CCNG1.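 Also: natural log of median RNA to DNA barcode read ratio; higher means stronger binding.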

Assay [4] concerns the target T4, 4H570-bH.
T4 chain: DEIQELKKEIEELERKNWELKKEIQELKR
Kind of assay: two-hybrid library CCNG1.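 Also: natural log of median RNA to DNA barcode read ratio; higher means stronger binding.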

In assay [5] the target is T5, 4H591-bH.
T5 chain: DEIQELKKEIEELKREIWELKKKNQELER
Kind of assay: two-hybrid library CCNG1.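 Also: natural log of median RNA to DNA barcode read ratio; higher means stronger binding.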

The target in assay [6] is T6, 4H3628-bH.
T6 chain: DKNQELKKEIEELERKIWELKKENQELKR
Kind of assay: two-hybrid library CCNG1.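 Also: natural log of median RNA to DNA barcode read ratio; higher means stronger binding.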

Assay [7] concerns the target T7, 4H906-bH.
T7 chain: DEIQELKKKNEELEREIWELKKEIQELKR
Kind of assay: two-hybrid library CCNG1.

Assay [8] addresses T8, 4H1899-bH.
T8 chain: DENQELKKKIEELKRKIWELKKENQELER
Kind of assay: two-hybrid library CCNG1.

Assay [9] deals with T9, 4H3497-bH.
T9 chain: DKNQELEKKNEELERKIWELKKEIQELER
The assay can be described thus: two-hybrid library CCNG1.

Assay [10] concerns the target T10, 4H3613-bH.
T10 chain: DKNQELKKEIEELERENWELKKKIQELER
The assay can be described thus: two-hybrid library CCNG1.

Assay [11] addresses T11, 4H3277-bH.
T11 chain: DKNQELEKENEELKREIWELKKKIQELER
Kind of assay: two-hybrid library CCNG1.

Assay [12] has as its target T12, 4H626-bH.
T12 chain: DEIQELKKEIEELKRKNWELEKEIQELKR
The assay can be described thus: two-hybrid library CCNG1.

The target in assay [13] is T13, 4H3298-bH.
T13 chain: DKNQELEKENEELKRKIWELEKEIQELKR
Kind of assay: two-hybrid library CCNG1.

In assay [14] the target is T14, 4H850-bH.
T14 chain: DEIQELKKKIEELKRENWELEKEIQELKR
Kind of assay: two-hybrid library CCNG1.

The target of assay [15] is T15, 4H3162-bH.
T15 chain: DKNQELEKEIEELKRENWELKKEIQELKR
Kind of assay: two-hybrid library CCNG1.

In assay [16] the target is T16, 4H1985-bH.
T16 chain: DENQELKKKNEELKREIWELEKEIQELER
Kind of assay: two-hybrid library CCNG1.

Assay [17] has as its target T17, 4H3817-bH.
T17 chain: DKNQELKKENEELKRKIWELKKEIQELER
Kind of assay: two-hybrid library CCNG1.

The target of assay [18] is T18, 4H3414-bH.
T18 chain: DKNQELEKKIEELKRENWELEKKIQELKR
Kind of assay: two-hybrid library CCNG1.

For assay [19], the target named is T19, 4H3628-bN.
T19 chain: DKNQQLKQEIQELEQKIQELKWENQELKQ
Kind of assay: two-hybrid library CCNG1.

Assay [20] has as its target T20, 4H3462-bH.
T20 chain: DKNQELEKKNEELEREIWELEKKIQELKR
The assay can be described thus: two-hybrid library CCNG1.

In assay [21] the target is T21, 4H3858-bH.
T21 chain: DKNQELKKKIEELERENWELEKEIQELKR
The assay can be described thus: two-hybrid library CCNG1.

Assay [22] deals with T22, 4H607-bH.
T22 chain: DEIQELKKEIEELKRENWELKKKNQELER
Kind of assay: two-hybrid library CCNG1.

For assay [23], the target named is T23, P7-AA.
T23 chain: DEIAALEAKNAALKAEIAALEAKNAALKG
The assay can be described thus: two-hybrid library CCmax. To be noted: mean of both orientations.

For assay [24], the target named is T24, P10-AA.
T24 chain: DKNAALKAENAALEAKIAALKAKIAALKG
The assay can be described thus: two-hybrid library CCmax. To be noted: mean of both orientations.

In assay [25] the target is GCN2_T. Kind of assay: two-hybrid library CCmax.
Assay [26] concerns the target T25, AP8-AA.
T25 chain: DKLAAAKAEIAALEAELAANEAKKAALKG
The assay can be described thus: two-hybrid library CCmax. To be noted: mean of both orientations.

Assay [27] concerns the target T26, P12-AA.
T26 chain: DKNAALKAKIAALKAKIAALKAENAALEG
The assay can be described thus: two-hybrid library CCmax. To be noted: mean of both orientations.

The target in assay [28] is T27, P3-AA.
T27 chain: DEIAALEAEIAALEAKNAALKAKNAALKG
The assay can be described thus: two-hybrid library CCmax. The conditions noted are these: mean of both orientations.

The target of assay [29] is T28, P1-AA.
T28 chain: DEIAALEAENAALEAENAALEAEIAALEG
The assay can be described thus: two-hybrid library CCmax. To be noted: mean of both orientations.

The target in assay [30] is T29, AP6-AA.
T29 chain: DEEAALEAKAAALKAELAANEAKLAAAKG
Kind of assay: two-hybrid library CCmax. The conditions noted are these: mean of both orientations.

Assay [31] has as its target T30, AP7-AA.
T30 chain: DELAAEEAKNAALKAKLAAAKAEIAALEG
The assay can be described thus: two-hybrid library CCmax.

In assay [32] the target is T31, P4-AA.
T31 chain: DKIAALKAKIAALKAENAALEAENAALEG
Kind of assay: two-hybrid library CCmax. The conditions noted are these: mean of both orientations.

Assay [33] has as its target T32, P2-AA.
T32 chain: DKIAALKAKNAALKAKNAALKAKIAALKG
The assay can be described thus: two-hybrid library CCmax. To be noted: mean of both orientations.

The target of assay [34] is T33, P8-AA.
T33 chain: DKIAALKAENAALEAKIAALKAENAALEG
Kind of assay: two-hybrid library CCmax. The conditions noted are these: mean of both orientations.

Assay [35] addresses T34, AP3-AA.
T34 chain: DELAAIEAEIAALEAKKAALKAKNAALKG
Kind of assay: two-hybrid library CCmax.

The target in assay [36] is T35, AP2-AA.
T35 chain: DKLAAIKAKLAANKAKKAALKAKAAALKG
The assay can be described thus: two-hybrid library CCmax.

Assay [37] addresses T36, P9-AA.
T36 chain: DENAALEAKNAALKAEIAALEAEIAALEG
Kind of assay: two-hybrid library CCmax. To be noted: mean of both orientations.

The target of assay [38] is T37, AP4-AA.
T37 chain: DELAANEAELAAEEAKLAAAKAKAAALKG
The assay can be described thus: two-hybrid library CCmax. To be noted: mean of both orientations.

In assay [39] the target is T38, AP5-AA.
T38 chain: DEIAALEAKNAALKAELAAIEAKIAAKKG
Kind of assay: two-hybrid library CCmax. To be noted: mean of both orientations.

Assay [40] concerns the target T39, P11-AA.
T39 chain: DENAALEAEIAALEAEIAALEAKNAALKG
Kind of assay: two-hybrid library CCmax. To be noted: mean of both orientations.

Assay [41] deals with T40, 4H3172-bH.
T40 chain: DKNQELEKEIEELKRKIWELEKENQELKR
The assay can be described thus: two-hybrid library CCNG1.

The target of assay [42] is T41, 4H3129-bH.
T41 chain: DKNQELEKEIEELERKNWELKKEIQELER
The assay can be described thus: two-hybrid library CCNG1.

In assay [43] the target is T42, 4H584-bH.
T42 chain: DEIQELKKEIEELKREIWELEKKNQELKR
The assay can be described thus: two-hybrid library CCNG1.

Assay [44] has as its target T43, 4H619-bH.
T43 chain: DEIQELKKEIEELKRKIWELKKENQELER
The assay can be described thus: two-hybrid library CCNG1.

Assay [45] deals with T44, 4H3631-bH.
T44 chain: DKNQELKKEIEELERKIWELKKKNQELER
Kind of assay: two-hybrid library CCNG1.

The target in assay [46] is T45, 4H3638-bH.
T45 chain: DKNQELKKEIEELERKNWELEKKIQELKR
The assay can be described thus: two-hybrid library CCNG1.

Assay [47] concerns the target T46, 4H72-bH.
T46 chain: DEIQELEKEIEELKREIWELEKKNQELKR
The assay can be described thus: two-hybrid library CCNG1.

For the molecule DENQELKKKIEELKRKIWELKKENQELER [4H1899-bH], the interaction score in [1] is -0.236; in assay [2], 0.298; in [3] it was 0.0491; in assay [4], -1.69; in assay [5] it was -0.968; in assay [6], 1.19. For the same molecule, the interaction score in assay [7] is -0.666; in [8], 0.337; in assay [9] it was 0.766; in assay [10], -0.355; in assay [11], -0.392; in [12], -1.98. Further, the interaction score in assay [13] was -0.203; in assay [14], -0.44; in [15], -0.289; in [16], 1.05; in assay [17] it was 0.356; in assay [18], -0.169. The interaction score is 0.735 in [19], 0.0285 in assay [20] and -0.0187 in assay [21].

Consider DKNQELEKEIEELKRENWELKKEIQELKR [4H3162-bH], for which the interaction score in [1] is 1.52; in assay [3], -1.88; in assay [5] it was -0.636; in assay [22], -2.63; in [6], -1.68; in assay [7], -0.0502. Moreover, the interaction score was -0.619 in assay [9]; 0.334 in [10]; -0.247 in assay [11]; -1.98 in assay [12]; -0.633 in assay [13]; 0.549 in [15]. For the same molecule, the interaction score in assay [20] was -0.66.

Regarding DKLAAIKAKLAANKAKKAALKAKAAALKG [AP2-AA], the interaction score in [23] was -1.75; in assay [24], -1.76; in [25], -1.81; in assay [26], -1.71; in assay [27], -1.59; in assay [28], -1.95. The interaction score in assay [29] is 0.511; in assay [30], -1.74; in assay [31], -1.6; in [32], -1.83; in [33], -1.94; in assay [34] it was -1.86. Besides, the interaction score in assay [35] (mean of both orientations) is -2.09; in assay [36], -2.11; in [37], -1.65; in assay [38], -1.62; in assay [39], -1.24; in assay [40], -0.526.

As for DENQELKKKNEELKREIWELEKEIQELER [4H1985-bH], the interaction score in assay [1] is -0.572; in assay [2], 0.0704; in [41], -1.84; in assay [3], -0.853; in assay [4], -0.979; in assay [5], -1.01. Besides, the interaction score is -0.631 in [6]; -0.874 in [7]; -0.549 in assay [42]; -1.1 in [43]; -0.884 in [9]; -1.08 in [10]. The interaction score in [11] was -0.449; in [44] it was -1.32; in assay [45], 0.015; in assay [46], -0.17; in [12], -2.1; in assay [13], -0.821. Also, the interaction score is -0.707 in assay [14]; -1.36 in [15]; -2.13 in assay [16]; -0.0213 in [17]; -0.255 in assay [18]; -0.781 in [47]. Besides, the interaction score is -0.482 in [20] and -1.02 in [21].

For the molecule DELAAIEAEIAALEAKKAALKAKNAALKG [AP3-AA], the interaction score was -1.23 in [23]; -0.602 in assay [24]; -1.8 in [25]; -1.48 in assay [26]; -1.03 in assay [27]; -1.84 in assay [28]. Besides, the interaction score was -2.22 in [29]; -1.78 in [30]; -1.93 in assay [31] (mean of both orientations); 1.61 in [32]; -1.75 in assay [33]; -1.45 in assay [34]. The interaction score in assay [35] was 0.89; in assay [37], -1.41; in assay [38], -1.84; in assay [39], -1.45; in assay [40] it was -1.01.
